# Article doi:10.1101/2024.09.24.614577 (bioRxiv, 2024)
# Molecular target: the molecule itself
# Assay: cryo-EM structure
protein,measurement,value
"human GPR155 (residues 1-870), construct without the eGFP tag (receptor, UniProt Q7Z3F1 1-870, looked up) MNSNLPAENLTIAVNMTKTLPTAVTHGFNSTNDPPSMSITRLFPALLECFGIVLCGYIAGRANVITSTQAKGLGNFVSRFALPALLFKNMVVLNFSNVDWSFLYSILIAKASVFFIVCVLTLLVASPDSRFSKAGLFPIFATQSNDFALGYPIVEALYQTTYPEYLQYIYLVAPISLMMLNPIGFIFCEIQKWKDTQNASQNKIKIVGLGLLRVLQNPIVFMVFIGIAFNFILDRKVPVYVENFLDGLGNSFSGSALFYLGLTMVGKIKRLKKSAFVVLILLITAKLLVLPLLCREMVELLDKGDSVVNHTSLSNYAFLYGVFPVAPGVAIFATQFNMEVEIITSGMVISTFVSAPIMYVSAWLLTFPTMDPKPLAYAIQNVSFDISIVSLISLIWSLAILLLSKKYKQLPHMLTTNLLIAQSIVCAGMMIWNFVKEKNFVGQILVFVLLYSSLYSTYLWTGLLAISLFLLKKRERVQIPVGIIIISGWGIPALLVGVLLITGKHNGDSIDSAFFYGKEQMITTAVTLFCSILIAGISLMCMNQTAQAGSYEGFDQSQSHKVVEPGNTAFEESPAPVNEPELFTSSIPETSCCSCSMGNGELHCPSIEPIANTSTSEPVIPSFEKNNHCVSRCNSQSCILAQEEEQYLQSGDQQLTRHVLLCLLLIIGLFANLSSCLWWLFNQEPGRLYVELQFFCAVFNFGQGFISFGIFGLDKHLIILPFKRRLEFLWNNKDTAENRDSPVSEEIKMTCQQFIHYHRDLCIRNIVKERRCGAKTSAGTFCGCDLVSWLIEVGLASDRGEAVIYGDRLVQGGVIQHITNEYEFRDEYLFYRFLQKSPEQSPPAINANTLQQERYKEIEHSSPPSHSPKT",stoichiometry N,2
